Results published in PMC3800664.

How the values were obtained:
[1] = target: GST-TKJMΔ (intracellular domain of the EGFR lacking the first 13 amino acids of the juxtamembrane region, fused to glutathione S-transferase); assay: cross-linking; total protein extracts of E. coli treated with BS3 or glutaraldehyde, western blot with anti-GST antibody; control without cross-linking agent
[2] = target: glutathione S-transferase (GST); assay: as above

glutathione S-transferase (GST), sequence (P08515 2-218): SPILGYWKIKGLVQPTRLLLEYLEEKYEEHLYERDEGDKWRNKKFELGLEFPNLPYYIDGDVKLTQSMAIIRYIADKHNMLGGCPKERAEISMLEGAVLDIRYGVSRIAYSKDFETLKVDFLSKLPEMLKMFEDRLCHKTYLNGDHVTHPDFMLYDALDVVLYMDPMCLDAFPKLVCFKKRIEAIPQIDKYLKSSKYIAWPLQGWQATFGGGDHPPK

Row | stoichiometry N [1] | stoichiometry N [2] | Substance
1 | 2 |  | GST-TKJMΔ (intracellular domain of the EGFR lacking the first 13 amino acids of the juxtamembrane region, fused to glutathione S-transferase) (domain or fragment)
2 |  | 2 | glutathione S-transferase (GST) (natural protein)
